{
  "source": "paper PMC11402941",
  "origin": "cited, not measured here",
  "key": {"[1]": {"molecular_target": "PSGL-1 (Homo sapiens) (UniProt Q14242)", "sequence (Q14242 42-320)": "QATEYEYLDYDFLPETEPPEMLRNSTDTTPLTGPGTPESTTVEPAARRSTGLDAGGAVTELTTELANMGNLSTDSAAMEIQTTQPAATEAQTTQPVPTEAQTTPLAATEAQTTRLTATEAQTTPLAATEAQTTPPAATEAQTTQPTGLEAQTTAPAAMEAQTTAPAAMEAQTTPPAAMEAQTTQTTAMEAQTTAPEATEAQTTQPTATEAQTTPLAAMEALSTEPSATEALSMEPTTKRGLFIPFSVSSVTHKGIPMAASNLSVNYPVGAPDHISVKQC"}, "[2]": {"molecular_target": "VSIG3 (Homo sapiens) (UniProt Q5DX21)", "sequence (Q5DX21 23-241)": "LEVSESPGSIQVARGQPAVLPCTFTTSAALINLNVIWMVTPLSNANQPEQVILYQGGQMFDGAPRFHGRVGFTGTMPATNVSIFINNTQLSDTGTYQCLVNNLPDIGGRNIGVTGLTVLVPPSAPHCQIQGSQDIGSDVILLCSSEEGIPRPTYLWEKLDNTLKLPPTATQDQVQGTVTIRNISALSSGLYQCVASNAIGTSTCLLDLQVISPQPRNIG"}},
  "data": [
    {"substance": "VISTA (from UniProt Q9H7M9)", "values": [
      {"measurement": "Kd", "setting": "[1]", "result": 4, "unit": "nM"},
      {"measurement": "Kd", "setting": "[2]", "result": 80, "unit": "nM"}
    ]}
  ]
}
